Reference: article PMC5368644

Tests used:
Experiment in all cases: NMR
Conditions in all cases: 25 °C; Not stated for the titration samples (structure samples contained 45 mM NaCl, 1 mM EDTA, 1 mM EGTA); Phosphate buffer for pH 7.3 to 5.9; acetate buffer for pH 5.5 to 3.5; pH changed by buffer exchange; concentrations not given; Ca2+-free, ligand-free, folded (the protein starts to unfold at pH 3 or below); ~0.5 mM protein
Asp109 = Asp109 (UniProt position 136, FTVQLDDYLNG)
Asp110 = Asp110 (UniProt position 137, TVQLDDYLNGR)
Asp50 = Asp50 (UniProt position 77, RVEKFDLVPVP)
Asp61 = Asp61 (UniProt position 88, TNLYGDFFTGD)
Asp66 = Asp66 (UniProt position 93, DFFTGDAYVIL)
Asp84 = Asp84 (UniProt position 111, GNLQYDLHYWL)
Asp96 = Asp96 (UniProt position 123, NECSQDESGAA)
Glu121 = Glu121 (UniProt position 148, AVQHREVQGFE)
Glu126 = Glu126 (UniProt position 153, EVQGFESATFL)
Glu156 = Glu156 (UniProt position 183, HVVPNEVVVQR)
Glu38 = Glu38 (UniProt position 65, LKAGKEPGLQI)
Glu47 = Glu47 (UniProt position 74, QIWRVEKFDLV)
Glu92 = Glu92 (UniProt position 119, YWLGNECSQDE)
Glu97 = Glu97 (UniProt position 124, ECSQDESGAAA)
His119 = His119 (UniProt position 146, GRAVQHREVQG)
His151 = His151 (UniProt position 178, ASGFKHVVPNE)
His29 = His29 (UniProt position 56, SMVVEHPEFLK)
His86 = His86 (UniProt position 113, LQYDLHYWLGN)

Which results are given for “Gelsolin fragment G1+ (domain 1 plus G1-G2 linker) (Homo sapiens (inferred; not stated explicitly in the article))”?
pKa (Asp109): 5.5; pKa (Asp110): 4.3; pKa (Asp50): 4.8; pKa (Asp61): 4.5; pKa (Asp66): 3.9; pKa (Asp84): <3.5; pKa (Asp96): <3.5; pKa (Glu121): <3.5; pKa (Glu126): <3.5; pKa (Glu156): 3.8; pKa (Glu38): 4.1; pKa (Glu47): <3.5; pKa (Glu92): 4.3; pKa (Glu97): <3.5; pKa (His119): 4.3; pKa (His151): 6.2; pKa (His29): 5.9; pKa (His86): 4.2
